B1: Focal adhesion kinase 1 (Rattus norvegicus (Rat)), O35346 (parent)
chain: MAAAYLDPNLNHTPSSSTKTHLGTGTERSPGAMERVLKVFHYFESSNEPTTWASIIRHGDATDVRGIIQKIVDSHKVKHVACYGFRLSHLRSEEVHWLHVDMGVSSVREKYELAHPPEEWKYELRIRYLPKGFLNQFTEDKPTLNFFYQQVKSDYMLEIADQVDQDIALKLGCLEIRRSYWEMRGNALEKKSNYEVLEKDVGLKRFFPKSLLDSVKAKTLRKLIQQTFRQFANLNREESILKFFEILSPVYRFDKECFKCALGSSWIISVELAIGPEEGISYLTDKGCNPTHLADFNQVQTIQYSNSEDKDRKGMLQLKIAGAPEPLTVTAPSLTIAENMADLIDGYCRLVNGATQSFIIRPQKEGERALPSIPKLANNEKQGMRTHAVSVSETDDYAEIIDEEDTYTMPSTRDYEIQRERIELGRCIGEGQFGDVHQGVYLSPENPALAVAIKTCKNCTSDSVREKFLQEALTMRQFDHPHIVKLIGVITENPVWIIMELCTLGELRSFLQVRKYSLDLASLILYAYQLSTALAYLESKRFVHRDIAARNVLVSSNDCVKLGDFGLSRYMEDSTYYKASKGKLPIKWMAPESINFRRFTSASDVWMFGVCMWEILMHGVKPFQGVKNNDVIGRIENGERLPMPPNCPPTLYSLMTKCWAYDPSRRPRFTELKAQLSTILEEEKVQQEERMRMESRRQATVSWDSGGSDEAPPKPSRPGYPSPRSSEGFYPSPQHMVQTNHYQISGYPGSHGIPAMAGSIYPGQASLLDQTELWNHRPQEMSMWQPSVEDSAALDLRGMGQVLPPHLMEERLIRQQQEMEEDQRWLEKEERFLKPDVRLSRGSIDREDGSFQGPTGNQHIYQPVGKPDPAAPPKKPPRPGAPGHLSNLSSISSPAESYNEGVKPWRLQPQEISPPPTANLDRSNDKVYENVTGLVKAVIEMSSKIQPAPPEEYVPMVKEVGLALRTLLATVDETIPILPASTHREIEMAQKLLNSDLGELISKMKLAQQYVMTSLQQEYKKQMLTAAHALAVDAKNLLDVIDQARLKMLGQTRPH

Variants of: B1
Conditions: with paxi_mouse Pxn

| effect of a mutation on the interaction | Variant |
| --- | --- |
| disrupting interaction | W266A |

Source: IntAct's records for PubMed 24480479
